This series deals with the molecule itself. Kind of series: two-hybrid; yeast; pJZ4-G clones in strain RFY231 mated with pHZ5-NRT clones in strain Y309; beta-galactosidase activity in Miller units (Yeast beta-Galactosidase Assay Kit, Pierce).

B1: Wag31T73EMtb (phosphomimetic Wag31 of Mycobacterium tuberculosis) (natural protein)
chain: MPLTPADVHNVAFSKPPIGKRGYNEDEVDAFLDLVENELTRLIEENSDLRQRINELDQELAAGGGAGVTPQAEQAIPAYEPEPGKPAPAAVSAGMNEEQALKAARVLSLAQDTADRLTNTAKAESDKMLADARANAEQILGEARHTADATVAEARQRADAMLADAQSRSEAQLRQAQEKADALQADAERKHSEIMGTINQQRAVLEGRLEQLRTFEREYRTRLKTYLESQLEELGQRGSAAPVDSNADAGGFDQFNRGKN
notes: also called phosphomimetic Wag31T73EMtb; source: yeast two-hybrid fusion
As to B1, the “fold interaction (beta-galactosidase activity) against wild-type Wag31Mtb with itself” value was roughly 2 fold.

Values taken from article PMC3019181 (BMC Microbiology, 2010).
